One series deals with T1, TkAcnX (Thermococcus kodakarensis, UniProt Q5JGJ6+Q5JGJ7).
T1 construct: gene TK1249; both subunits co-expressed in E. coli (pETDuet-1); His6 tag on small subunit cut off with 3C protease; heterodimer ~24 + ~42 kDa
The experiment in a line: X-ray co-crystal structure, […] Å. It is filed as binding. Conditions: 40 mM MVA5P in co-crystallization; inactive form with [3Fe-4S] cluster; active site between subunits.

Substrate in series [1]: O=C(O)[C@H]1NCC[C@H]1O
Description: coupled spectrophotometric assay with NADH-dependent Pyr2C reductase. It is filed as biochemical, Agrobacterium fabrum. Conditions: free enzyme; coupling with NADH.

T1 sequence (Q5JGJ7 whole entry): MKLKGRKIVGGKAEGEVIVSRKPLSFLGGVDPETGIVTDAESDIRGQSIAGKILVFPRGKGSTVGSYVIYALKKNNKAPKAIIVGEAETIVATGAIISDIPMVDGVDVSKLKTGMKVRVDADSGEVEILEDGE
T1 sequence (Q5JGJ6 whole entry): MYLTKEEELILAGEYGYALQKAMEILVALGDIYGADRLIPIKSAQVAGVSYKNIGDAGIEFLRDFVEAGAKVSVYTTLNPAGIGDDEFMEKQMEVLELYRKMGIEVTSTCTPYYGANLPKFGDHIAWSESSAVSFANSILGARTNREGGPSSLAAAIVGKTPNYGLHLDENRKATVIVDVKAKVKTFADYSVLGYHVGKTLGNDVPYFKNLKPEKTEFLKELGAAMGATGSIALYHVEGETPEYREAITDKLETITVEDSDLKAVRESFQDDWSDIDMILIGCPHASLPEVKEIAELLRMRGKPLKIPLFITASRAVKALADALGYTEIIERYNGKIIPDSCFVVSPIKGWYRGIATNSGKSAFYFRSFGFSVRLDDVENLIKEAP

Turning to `C[C@@](O)(CCOP(=O)(O)O)CC(=O)O` [MVA5P], at TkAcnX, the “X-ray co-crystal structure, 1.9 Å” value is “co-crystallized the wild-type enzyme of TkAcnX (inactive form) with MVA5P”.

B1: AtAcnX (Agrobacterium fabrum str. C58) (protein)
chain: MSSAVSTTAAPEARSILAGAAEGKVIATTEALSFWGGVDPATGKVIDVHHPLHGICLTGGVLFMPTSRGSCTGSGVLLDLILTGRAPSALVFCEAEDVLTLGALVAAEMFDKALPVIRLDAETFSRFSRAAHVSIDQNTIKADGVSLAIAPPATAHLDLNDDDRAMLVGRDGIAVRQAMRIIVAMAAQQGASALVDVTQGHIDGCIYASPANLTFAEKMADMGGKVRAPSTMNAISVDKANWRAQGVPEDFGDPAARLADAYVRMGCKPTFTCSPYLLDSAPSAGESIAWAESNAVIFANTVLGARTAKHPDFLDLCIAMTGRAPLSGVYIEENRRPQRIVDVALPAGIDDAFWPLVGYLAGKAAPDCIPLLRGLGAAKPSRDDLKALCAAFGTTSASPMLHIEGATPEAGLAPLETAETVTISLQDMAAAWSLLNDGPEEVQLVAIGSPHASLEECRALAAVFAGRKRRADVAVIVTAGQQVIDAAGKDGTLQSLKDSGVQVLPDLCWCSISEPVFPTKTRALMTNSGKYAHYGPGLSGRAVRFGSLADCVESALTGRAVSRLPVWLS
notes: E. coli BL21(DE3); monomer, ~59 kDa; [2Fe-2S] cluster
In the case of B1, in series [1], the Km (usually the concentration of substrate that gives half-maximal velocity) was 1160 ± 110 µM; the kcat (usually the number of substrate molecules converted per active site and unit of time at saturation) came out at 33.33 ± 2.77 s⁻¹.

The values above are taken from publication PMC8184944, “Crystal structures of aconitase X enzymes from bacteria and archaea provide insights into the molecular evolution of the aconitase superfamily” (Communications Biology, 2021).
